Holding throughout (conditions): protein: recombinant; tags: N-terminal 6xHis; mScarlet fusion; chain copies: 2; label: 32P (SRI primer strand); blunt
One series deals with ASCL2 DBD R5K (human, UniProt Q99929 50-102, R55K). As to the kind of experiment: EMSA; preferred over CACGTG probe; 32P EMSA: ~50 nM probe, 0.5/1/2 uM protein, 30 min, reagents as in Feng et al., gel at 4 C; fluorescent EMSA: 5x buffer (50 mM Tris pH 7.5, 250 mM NaCl, 5 mM MgCl2, 20% glycerol, 2.5 mM DTT, 2.5 mM EDTA, 250 ug/ml poly(dI-dC), 1 mg/ml BSA) used at 1x plus half volume protein dialysis buffer (20 mM HEPES pH 7.9, 200 mM NaCl, 10% glycerol, 2 mM MgCl2), gel 0.5x TBE at 4 C. For orientation: A gel shift assay detects complexes by their altered migration in electrophoresis.

The target of another series is ASCL2 DBD V13R (human, UniProt Q99929 50-102, V63R). Description: EMSA; preferred over CAGCTG probe; 32P EMSA: ~50 nM probe, 0.5/1/2 uM protein, 30 min, reagents as in Feng et al., gel at 4 C; fluorescent EMSA: 5x buffer (50 mM Tris pH 7.5, 250 mM NaCl, 5 mM MgCl2, 20% glycerol, 2.5 mM DTT, 2.5 mM EDTA, 250 ug/ml poly(dI-dC), 1 mg/ml BSA) used at 1x plus half volume protein dialysis buffer (20 mM HEPES pH 7.9, 200 mM NaCl, 10% glycerol, 2 mM MgCl2), gel 0.5x TBE at 4 C.

The target in another series is ASCL2 DBD R5K+V13R (human, UniProt Q99929 50-102, R55K;V63R). Described as above.
Chain of ASCL2 DBD R5K+V13R (Q99929 50-102 R55K/V63R): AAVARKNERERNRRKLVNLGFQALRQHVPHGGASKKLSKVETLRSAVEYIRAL

Chain of ASCL2 DBD R5K (Q99929 50-102 R55K): as the sequence (Q99929 50-102 R55K/V63R) above, with R14V counted along it
Chain of ASCL2 DBD V13R (Q99929 50-102 V63R): as the sequence (Q99929 50-102 R55K/V63R) above, with K6R counted along it

B1: CAGCTG probe (dsDNA)
DNA 1: TAGCCAATAACTTCGTCCCTCAGCTGCATATAAGGAAGATCTAACCACCAATTTGG
DNA 2: CCAAATTGGTGGTTAGATCTTCCTTATATGCAGCTGAGGGACGAAGTTATTGGCTA
Consider B1, for which the binding result with ASCL2 DBD R5K is “binds”.

B2: CACGTG probe (dsDNA)
DNA 1: TAGCCAATAACTTCGTCCCTCACGTGCATATAAGGAAGATCTAACCACCAATTTGG
DNA 2: CCAAATTGGTGGTTAGATCTTCCTTATATGCACGTGAGGGACGAAGTTATTGGCTA
B2: the binding result in the series with ASCL2 DBD V13R and in the series with ASCL2 DBD R5K+V13R was “binds” in each case.

The values above are taken from paper PMC12392098, “Predicting the DNA binding specificity of transcription factor mutants using family-level biophysically interpretable machine learning”.
